Assay [1] deals with T1, cynomolgus monkey OX40 on cells (activated cynomolgus monkey CD4+ T cells, OX40+ cells in peripheral blood) (cynomolgus monkey).
T1 construct: whole, on cells; also called monkey OX40 receptor on CD4+ T cells
Kind of assay: binding to activated cynomolgus monkey CD4+ T cells; activated cynomolgus monkey CD4+ T cells.

For assay [2], the target named is T2, recombinant OX40 extracellular domain from humans (human, UniProt P43489 29-214).
T2 construct: extracellular domain; also called human OX40; hOX40
T2 sequence (looked up): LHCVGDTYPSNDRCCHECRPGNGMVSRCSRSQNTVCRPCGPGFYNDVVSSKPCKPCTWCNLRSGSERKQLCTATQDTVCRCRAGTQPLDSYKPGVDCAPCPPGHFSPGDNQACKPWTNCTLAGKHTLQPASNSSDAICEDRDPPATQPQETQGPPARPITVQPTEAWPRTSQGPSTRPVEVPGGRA
Kind of assay: binding to recombinant OX40 extracellular domain, method not stated; recombinant human OX40 extracellular domain.

Assay [3] has as its target T3, human OX40 on cells (activated human CD4+ T cells, stimulated PBMC, lymphocytes in whole blood) (human, UniProt P43489 29-277).
T3 sequence (looked up): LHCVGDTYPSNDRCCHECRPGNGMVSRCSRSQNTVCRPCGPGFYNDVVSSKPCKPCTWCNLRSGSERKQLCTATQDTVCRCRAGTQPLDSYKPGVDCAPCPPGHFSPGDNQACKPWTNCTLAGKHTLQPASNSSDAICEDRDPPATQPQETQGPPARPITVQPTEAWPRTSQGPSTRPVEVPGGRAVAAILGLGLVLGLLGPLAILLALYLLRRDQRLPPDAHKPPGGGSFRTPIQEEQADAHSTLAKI
Kind of assay: cell-based or functional assay.

Assay [4] has as its target T1, cynomolgus monkey OX40 on cells …. Kind of assay: cell-based or functional assay.
Assay [5] has as its target T3, human OX40 on cells (activated human …). Put plainly: binding to stimulated human PBMC; stimulated human PBMC; lower end of range.
For assay [6] the target is unchanged. Put plainly: binding to stimulated human PBMC; stimulated human PBMC; upper end of range.
The target is the same in assay [7]. Put plainly: unstimulated human whole-blood binding assay, lymphocytes.
Assay [8] shares this target. Kind of assay: binding to activated human CD4+ T cells; activated human CD4+ T cells.
Assay [9] addresses T4, recombinant OX40 extracellular domain from cynomolgus monkeys (cynomolgus monkey).
T4 construct: extracellular domain; also called cynomolgus monkey OX40
Put plainly: binding to recombinant OX40 extracellular domain, method not stated.

Values joined by “and” are separate entries in the source; they are usually repeats but may differ in a detail not shown here. Equal values may be shown once.

B1: ANTIBODY 106-222 (antibody, human IgG1, kappa, V domains shown)
VH: QVQLVQSGSELKKPGASVKVSCKASGYTFTDYSMHWVRQAPGQGLKWMGWINTETGEPTYADDFKGRFVFSLDTSVSTAYLQISSLKAEDTAVYYCANPYYDYVSYYAMDYWGQGTTVTVSS
VL: DIQMTQSPSSLSASVGDRVTITCKASQDVSTAVAWYQQKPGKAPKLLIYSASYLYTGVPSRFSGSGSGTDFTFTISSLQPEDIATYYCQQHYSTPRTFGQGTKLEIKR
notes: also called humanized wild-type IgG1 anti-OX40 agonistic mAb
Turning to B1, the EC50 was 0.35 µg/mL in [1]; not below 0.1 µg/mL in assay [5]; not above 0.3 µg/mL in [6]; 1.45 µg/mL in [7]; 0.3 µg/mL in [8]. Moreover, the figures for the Kd in [2] and in [9] were 4.9 nM and 408 nM, respectively. For the same molecule, in assay [3], the “anti-CD3 induced proliferation of activated human CD4+ T cells, mean EC50” value is 0.19 µg/mL and 1.3 nM. In addition, in [4], the “proliferation of immobilized anti-CD3 activated cynomolgus monkey CD4+ T cells, mean EC50” value is 0.72 µg/mL and 4.8 nM.

(Values after US20190023791A1 (GlaxoSmithKline, published 2019).)
